± gives the uncertainty stated by the source.
Experiment: amyloid nucleation score (Sup35N fusion, yeast selection) (log enrichment); library NNK1; higher = more nucleation; inactive = no reads after selection
Summary of the method: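 For the nucleation score, DiMSum gave the log enrichment of output over input reads, centred on the mode score of non-aggregating sequences. Psi-negative yeast expressing Sup35N fused to peptides of 20 random codons were induced with 100 μM copper sulfate for 24 hours and grown 7 days at 30°C on medium lacking adenine and uracil. Input and output plasmid inserts were Illumina-sequenced, and sequences with under 100 input reads were excluded.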

| Substance | amyloid nucleation score |
| --- | --- |
| FLGLNQLNFWFGAS | 7.845 ± 0.045 |
| FLGTI | -1.08 ± 2.7 |
| FLHFVYRI | -0.578 ± 1 |
| FLLLCRSFFSARTILRCTMG | 0.072 ± 0.81 |
| FLMFQGSYIYRNTGFYSSSD | -0.176 ± 0.95 |
| FLNLGSSDQSHYSCTKEWSH | -0.157 ± 0.51 |
| FLNNTGAQSKLFLDVSVRQG | -0.065 ± 0.86 |
| FLPRSYCVFSWFHLSVSTAR | inactive |
| FLQFF | -0.656 ± 0.47 |
| FLQNMSVILTIMNDIKIMED | 6.161 ± 0.047 |
| FLTAAWTSGHDGREFSPRPF | 2.61 ± 0.16 |
| FLTIYGLNPSDYVGKVRQRD | 0.236 ± 0.34 |
| FMHAGIYL | 0.043 ± 1 |
| FMIVKFLIL | 1.5 ± 0.26 |
| FMKSKAAAYS | -0.247 ± 0.63 |
| FMLVMFYWIYFNYSNVFRD | -0.669 ± 0.78 |
| FMLYTTVTERAWRHLN | 0.395 ± 0.36 |
| FMRMFVIIKHHVEVRRPRFI | 0.413 ± 0.7 |
| FMRPVYHYMPSMTSYVSLDT | inactive |
| FMTSDPYVLIHQALVRINEY | 4.58 ± 0.095 |
| FNAAYIAGVGNLMTWDNSSN | -1.07 ± 0.61 |
| FNFMFAKDGGSDTFLRFDRV | 4.83 ± 0.11 |
| FNFRYPKDRGVSIVGCNFPM | -0.065 ± 0.51 |
| FNGGNTFVCVSLDTCWNGWY | 7.54 ± 0.085 |
| FNIHCVSSA | -0.015 ± 0.47 |
| FNISFCIASSYVNTIGKQQG | 3.32 ± 0.12 |

| Substance | amyloid nucleation score |
| --- | --- |
| FNLWIP | 2.13 ± 0.17 |
| FNPLRVNYGLWDRSAR | 0.248 ± 0.83 |
| FNVALFMEI | 1.07 ± 0.27 |
| FNYEGYNMSCCGYRQFMEFG | 5.87 ± 0.073 |
| FPCLTSSTSGYWSLI | 1.32 ± 0.12 |
| FPFAYGVSESQSSVIHVLDV | -0.063 ± 0.26 |
| FPLAIVLIVN | 0.059 ± 0.39 |
| FPSNPYPNLPNMDVKRSNAF | inactive |
| FPYGSVIVVFVDFWYRLSSV | -0.343 ± 0.34 |
| FQHTLGRKA | 0.438 ± 0.68 |
| FQMLF | -0.752 ± 0.7 |
| FQMNSCNWSVTGRIVFPDVY | 1.58 ± 0.42 |
| FQSISGFSATHWIFFMEGTY | 0.216 ± 0.45 |
| FRALKLEAIPAKVGAPYLVP | 0.045 ± 0.4 |
| FRFGTA | 0.39 ± 0.49 |
| FRGFVVGGGT | -0.664 ± 0.61 |
| FRIVGSRMFVLLLCYVSSGR | 0.241 ± 0.27 |
| FRLDNLRCTWVFRYPIGESS | 1.17 ± 0.73 |
| FRLSWHSYNSMWINTVTSPQ | 2.75 ± 0.078 |
| FRNGDGVQPWLTWHAV | 1.28 ± 0.33 |
| FRQPGYMCEIRVVGFGPKPL | -0.274 ± 0.9 |
| FRRMVTVNEAWHHRKAGSAN | 1.47 ± 0.65 |
| FRSFLVPACYHGFGDGYMFF | -0.439 ± 0.77 |
| FRSVGVYAISNLYGHSRYFS | -0.533 ± 0.42 |
| FRSVSGNMYTLLFRIE | 1.62 ± 0.24 |
| FRTHVGSDCGL | -0.026 ± 1 |

| Substance | amyloid nucleation score |
| --- | --- |
| FRVVCVHSLSMGNVFNFDWR | 4.77 ± 0.08 |
| FSCCILPCSLSHSMVFLGSG | 8.064 ± 0.08 |
| FSCGCIRYFSG | -0.115 ± 0.91 |
| FSCLNSFKRVFNFNIPASVC | -0.863 ± 1 |
| FSDNRASPESKPQCVTGRRD | 0.669 ± 0.31 |
| FSEVTLFFPKDAILEFSARC | -0.353 ± 0.79 |
| FSFRRFCLCMLREGHTRQLG | -0.957 ± 2.4 |
| FSFSIAMVNLVEDATVDCAG | -0.048 ± 0.31 |
| FSFYMLRFFSKTSYYSLMSF | -0.721 ± 0.27 |
| FSGCGWYRTVDYGGP | inactive |
| FSGQAITLVCWIVGQILPFS | inactive |
| FSHAGD | -0.494 ± 0.71 |
| FSISKLFGLNADTVHTRHKK | 0.073 ± 0.38 |
| FSKTAGEVAYSLTESTDVRS | -1.26 ± 0.88 |
| FSMGGYFLFLCNNFTLYHIS | 7.598 ± 0.07 |
| FSMIMSLDVL | -0.397 ± 0.4 |
| FSNLKISWECNRCGSYYDCE | -0.122 ± 1.4 |
| FSNRWFC | -0.578 ± 0.31 |
| FSQLYMGMYPGHNLLKYHSG | -0.275 ± 0.22 |
| FSQVSEEIIGVFLSISYCIL | 2.93 ± 0.074 |
| FSSICSRMEEGMTE | 0.001 ± 0.34 |
| FSSRWSI | -0.138 ± 0.6 |
| FSSSWELVRLYTASCKHDSK | 0.782 ± 0.2 |
| FSTAM | 0.895 ± 0.79 |
| FSVLVPMYK | -0.361 ± 0.6 |
| FSVRGYSNLSAEDFINLKVP | -0.522 ± 1.4 |

| Substance | amyloid nucleation score |
| --- | --- |
| FSVYVGVILCVSATVDVWAC | 1.87 ± 0.23 |
| FSYLSFCPVVSFESTFPTPM | 5.29 ± 0.066 |
| FSYRSIWLRVLRV | -0.111 ± 0.4 |
| FTGDVPEDTLRLSSFENMRR | 0.384 ± 0.53 |
| FTISSKLRYIGTGVINGPVD | -0.397 ± 0.56 |
| FTKFRYRTLINSYNFWGTGA | -0.115 ± 1.4 |
| FTLCQASYMN | -0.655 ± 0.67 |
| FTLIIRDLMFSRHEFRVHAG | -0.213 ± 0.39 |
| FTLSKTILDRSFLWIQGLWS | -0.354 ± 0.81 |
| FTMKMGYMVAFIW | -0.394 ± 0.25 |
| FTNRTIFFV | -0.023 ± 0.91 |
| FTSSIMEFNESQWVNFTFIW | 4.42 ± 0.053 |
| FTSSVIILCIFYWNGLVRIF | -0.505 ± 1.5 |
| FTYIISRISFMRDWVF | -0.257 ± 1.4 |
| FVAISVSTIRQCGVCRGGTC | 4.29 ± 0.12 |
| FVCRFQYFSRYATNYFYVWC | inactive |
| FVFSGFYT | 0.353 ± 0.21 |
| FVGEN | 0.281 ± 0.52 |
| FVGMSRFFKVH | -0.629 ± 0.39 |
| FVGRSVCAKMTPHRLTAIGP | -0.082 ± 0.67 |
| FVGSSFGDDFISVSIHSWRP | inactive |
| FVIFSIELCGHRATSSSFNL | 5.565 ± 0.047 |
| FVKFVTSEAFDHVLRTNWN | inactive |
| FVKVAPANKGISGKRDLCKL | 0.215 ± 0.3 |
| FVLQKGYK | 0.2 ± 0.59 |
| FVMLGWFSRNIGLYEVFVFT | 0.502 ± 0.36 |

| Substance | amyloid nucleation score |
| --- | --- |
| FVSLNTIFRAYPQIHYRLVR | inactive |
| FVSVAQVEE | -1.2 ± 1 |
| FVSVCD | -0.049 ± 1 |
| FVSVWDILL | -0.049 ± 0.27 |
| FVVIEILDFSPFDHCFIILE | 1.26 ± 0.48 |
| FVVLSRFACRLRLTR | 0.853 ± 0.55 |
| FWANH | inactive |
| FWLCRYTIGSRLLFVVQTST | 0.986 ± 0.65 |
| FWNMWAYEMRFVLRNYAL | -0.908 ± 0.43 |
| FWSHHPHTNENMCTYTNLSW | inactive |
| FWSMIGLWILDC | 0.031 ± 0.25 |
| FWSWSV | -0.222 ± 0.42 |
| FWVAIRVRVIWVNKKNDGCI | -0.147 ± 0.66 |
| FWVQNMVGNFFNYYFDRGNQ | 7.791 ± 0.045 |
| FYARMLYYA | inactive |
| FYFRNSSGF | 2.49 ± 0.58 |
| FYGEGNFRGKTYVFTVPVVK | -1.21 ± 2.4 |
| FYGVRVTGAAFRALVMVSPR | 0.616 ± 1.1 |
| FYIVFFTCLASSS | 1.94 ± 0.29 |
| FYKLVSLREIGMIQVIRGLD | -0.395 ± 0.47 |
| FYKQLYSAEHKKFSCTAFVK | inactive |
| FYLGPCYAVIWVNFQLPLGV | 0.596 ± 0.33 |
| FYMRSFLFDFQLFHVVGIWF | -0.929 ± 0.39 |
| FYQLYLINSTCHGRSRYILS | 0.155 ± 0.51 |

— the supplement of paper PMC12042874
